Measurements reported in PMC10849593 (Science Advances, 2024).

Legend:
[1] = biological target: T1, MutSβ WT, MSH3 subunit;MutSβ, MSH2 subunit (human;human?, UniProt P20585;P43246 1-1137;1-934, |); assay: pull-down
[2] = biological target: T1, MutSβ WT, MSH3 subunit;MutSβ, MSH2 …; assay: EMSA
[3] = biological target: MutLβ (MLH1-PMS1 heterodimer) carrying a 6xHis tag on the PMS1 subunit (human, UniProt P40692;P54277); assay: pull-down

B1: b66-G4 (structured_DNA)
DNA: TTTTTTTTTTTTTTTTTTTTTTTTTTTTTTTTTTTTTTTTTTTTTGGGTGGGTGGGTGGGTTTTTT
binding result [1]: binds

AGGGGGGAGGGAGGGTGG (structured_DNA) [CEB1 G4]
binding result [2]: binds

B2: Flag-tagged FANCJ (enzyme)
chain: MSSMWSEYTIGGVKIYFPYKAYPSQLAMMNSILRGLNSKQHCLLESPTGSGKSLALLCSALAWQQSLSGKPADEGVSEKAEVQLSCCCACHSKDFTNNDMNQGTSRHFNYPSTPPSERNGTSSTCQDSPEKTTLAAKLSAKKQASIYRDENDDFQVEKKRIRPLETTQQIRKRHCFGTEVHNLDAKVDSGKTVKLNSPLEKINSFSPQKPPGHCSRCCCSTKQGNSQESSNTIKKDHTGKSKIPKIYFGTRTHKQIAQITRELRRTAYSGVPMTILSSRDHTCVHPEVVGNFNRNEKCMELLDGKNGKSCYFYHGVHKISDQHTLQTFQGMCKAWDIEELVSLGKKLKACPYYTARELIQDADIIFCPYNYLLDAQIRESMDLNLKEQVVILDEAHNIEDCARESASYSVTEVQLRFARDELDSMVNNNIRKKDHEPLRAVCCSLINWLEANAEYLVERDYESACKIWSGNEMLLTLHKMGITTATFPILQGHFSAVLQKEEKISPIYGKEEAREVPVISASTQIMLKGLFMVLDYLFRQNSRFADDYKIAIQQTYSWTNQIDISDKNGLLVLPKNKKRSRQKTAVHVLNFWCLNPAVAFSDINGKVQTIVLTSGTLSPMKSFSSELGVTFTIQLEANHIIKNSQVWVGTIGSGPKGRNLCATFQNTETFEFQDEVGALLLSVCQTVSQGILCFLPSYKLLEKLKERWLSTGLWHNLELVKTVIVEPQGGEKTNFDELLQVYYDAIKYKGEKDGALLVAVCRGKVSEGLDFSDDNARAVITIGIPFPNVKDLQVELKRQYNDHHSKLRGLLPGRQWYEIQAYRALNQALGRCIRHRNDWGALILVDDRFRNNPSRYISGLSKWVRQQIQHHSTFESALESLAEFSKKHQKVLNVSIKDRTNIQDNESTLEVTSLKYSTSPYLLEAASHLSPENFVEDEAKICVQELQCPKIITKNSPLPSSIISRKEKNDPVFLEEAGKAEKIVISRSTSPTFNKQTKRVSWSSFNSLGQYFTGKIPKATPELGSSENSASSPPRFKTEKMESKTVLPFTDKCESSNLTVNTSFGSCPQSETIISSLKIDATLTRKNHSEHPLCSEEALDPDIELSLVSEEDKQSTSNRDFETEAEDESIYFTPELYDPEDTDEEKNDLAETDRGNRLANNSDCILAKDLFEIRTIKEVDSAREVKAEDCIDTKLNGILHIEESKIDDIDGNVKTTWINELELGKTHEIEIKNFKPSPSKNKGMFPGFK
binding result [3]: binds
